{
  "source": "paper PMC10893412",
  "about": "“Genetic and Biochemical Characterization of AXC-2 from Achromobacter ruhlandii” (Pathogens, 2024)",
  "assay_in_all_cases": "purified protein",
  "settings_in_all_cases": "25 mM sodium phosphate pH 7.5, 25 °C",
  "key": {"[1]": {"system": "CC1=C(C(=O)O)N2C(=O)[C@@H](NC(=O)[C@H](N)c3ccccc3)[C@H]2SC1"}, "[2]": {"system": "CC1(C)S[C@@H]2[C@H](NC(=O)Cc3ccccc3)C(=O)N2[C@H]1C(=O)O", "format": "biochemical, Achromobacter ruhlandii", "from_the_text": "(§1) UV/Vis spectrophotometric hydrolysis, steady state on AXC-2"}, "[3]": {"system": "CC1(C)S[C@@H]2[C@H](NC(=O)[C@H](N)c3ccccc3)C(=O)N2[C@H]1C(=O)O", "format": "biochemical, Achromobacter ruhlandii", "from_the_text": "as §1"}, "[4]": {"system": "CO/N=C(\\C(=O)N[C@@H]1C(=O)N2C(C(=O)O)=C(CSc3nc(=O)c(=O)[nH]n3C)CS[C@H]12)c1csc(N)n1", "format": "biochemical, Achromobacter ruhlandii", "from_the_text": "as §1"}, "[5]": {"system": "CO/N=C(\\C(=O)N[C@@H]1C(=O)N2C(C(=O)[O-])=C(C[N+]3(C)CCCC3)CS[C@H]12)c1csc(N)n1", "format": "biochemical, Achromobacter ruhlandii", "from_the_text": "as §1"}, "[6]": {"system": "C[C@@H](O)[C@H]1C(=O)N2C(C(=O)O)=C(SCCN=CN)C[C@H]12", "format": "biochemical, Achromobacter ruhlandii", "from_the_text": "as §1"}, "[7]": {"system": "C[C@@H](O)[C@H]1C(=O)N2C(C(=O)O)=C(S[C@@H]3CN[C@H](C(=O)N(C)C)C3)[C@H](C)[C@H]12", "format": "biochemical, Achromobacter ruhlandii", "from_the_text": "as §1"}, "[8]": {"system": "O=C(Cc1cccs1)N[C@@H]1C(=O)N2C(C(=O)O)=C(/C=C/c3ccc([N+](=O)[O-])cc3[N+](=O)[O-])CS[C@H]12", "format": "biochemical, Achromobacter ruhlandii", "from_the_text": "as §1"}},
  "data": [
    {"substance": "AXC-2 (Achromobacter ruhlandii)", "values": [
      {"measurement": "Km", "setting": "[1]", "result": "74 ± 14", "unit": "µM"},
      {"measurement": "kcat", "setting": "[1]", "result": 16, "unit": "s⁻¹"},
      {"measurement": "kcat/Km", "setting": "[1]", "result": 220000, "unit": "M⁻¹ s⁻¹"},
      {"measurement": "Km", "setting": "[2]", "result": "1297 ± 409", "unit": "µM"},
      {"measurement": "kcat", "setting": "[2]", "result": "125 ± 28", "unit": "s⁻¹"},
      {"measurement": "kcat/Km", "setting": "[2]", "result": "100000 ± 50000", "unit": "M⁻¹ s⁻¹"},
      {"measurement": "Km", "setting": "[3]", "result": "344 ± 14", "unit": "µM"},
      {"measurement": "kcat", "setting": "[3]", "result": "62 ± 5", "unit": "s⁻¹"},
      {"measurement": "kcat/Km", "setting": "[3]", "result": "180000 ± 20000", "unit": "M⁻¹ s⁻¹"},
      {"measurement": "Km", "setting": "[4]", "result": "59 ± 6", "unit": "µM"},
      {"measurement": "kcat", "setting": "[4]", "result": "5.5 ± 0.3", "unit": "s⁻¹"},
      {"measurement": "kcat/Km", "setting": "[4]", "result": "90000 ± 10000", "unit": "M⁻¹ s⁻¹"},
      {"measurement": "Km", "setting": "[5]", "result": "872 ± 254", "unit": "µM"},
      {"measurement": "kcat", "setting": "[5]", "result": "0.29 ± 0.07", "unit": "s⁻¹"},
      {"measurement": "kcat/Km", "setting": "[5]", "result": "300 ± 100", "unit": "M⁻¹ s⁻¹"},
      {"measurement": "Km", "setting": "[6]", "result": "6.3 ± 0.8", "unit": "µM"},
      {"measurement": "kcat", "setting": "[6]", "result": "0.0364 ± 0.0009", "unit": "s⁻¹"},
      {"measurement": "kcat/Km", "setting": "[6]", "result": "5800 ± 900", "unit": "M⁻¹ s⁻¹"},
      {"measurement": "Km", "setting": "[7]", "result": "8 ± 1", "unit": "µM"},
      {"measurement": "kcat", "setting": "[7]", "result": "0.051 ± 0.002", "unit": "s⁻¹"},
      {"measurement": "kcat/Km", "setting": "[7]", "result": "7000 ± 1000", "unit": "M⁻¹ s⁻¹"},
      {"measurement": "Km", "setting": "[8]", "result": "202 ± 24", "unit": "µM"},
      {"measurement": "kcat", "setting": "[8]", "result": "40 ± 3", "unit": "s⁻¹"},
      {"measurement": "kcat/Km", "setting": "[8]", "result": "200000 ± 40000", "unit": "M⁻¹ s⁻¹"}
    ]}
  ]
}
